Drawing on the NTF2 design screens of Basanta et al. (2020), this text covers protease stability score for 34 sequences.

This data set in a line: protease stability score; higher = more stable; yeast display proteolysis, trypsin and chymotrypsin.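 Also: relative to predicted unfolded state with 0 unfolded-like and 1 meaning tenfold more protease.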
In the case of “DEEKDHAQMFLELWRHFLETGDEEFLERLADPHVKSLINGVEHHGREIMYKYLIKFLRRLGVDRVHTEVRIHHMHVINGVAFFDGTLHLNFNGQTYSRRVEIIVYKVNGRWHLHEFRIE”, the protease stability score is 1.74.
Under “DEEKDIIERMSKMITRSWETGNEDWLSELADPDVKFHINGRDHHGMEEMARLWLELVLKLGVKHQTIEHLSIQGDKVHIHSRSDFNGRHMKLEIRVLLVNGKIRSVTVHLHVD” stands 0.633; under “DEEKDIMERIADLMLELSETGDEHTYKRMADPNVRLRFNGVDIHGMDNISKYLKEFFERIDHVEFEIKDFRSFDGRYNNRGLLILNVGDKRIIIDITIRVEVVNGRVKERQVDID”, 0.749.
Under “DEEKDIMNEWWKRIFNVFHTGDEREHDKMLDPNARFDIGDKTLHGMDDFRRFLHRADHISHFTEHHVEVQGEKLVWEGTYDGEFNGVERRFHTHEQNIIINGKVKRVFFQIR” stands 0.834; under “DEEKDLTEKIAHEIVHNYMTGDFDRFIELADPNVRFIIGDKIYHGREQLLTVLEHWRQEWRLSHVRLDEFEIQGDKVILHTTMNIKYGDKRIDVETEIKIIIINGRIRDWTIDRR”, 1.42; under “DEEKEDAYRNAELWIKSINTGDEDVLTDLLDPHARIDIGDKKLHGMESFTKLYRDLGFRIKDFHLKDIRIYGEKIEIHGIIHFEQGDKEHNEDTTIILLKVNGKWIIKRLRVN”, 1.5.
Under “DEEKEDFHHAVELVLRVIKTGDEHTARELMDPRVRIDIDGQDFHGWQHIVHFVKHWRIERYSLKYVEYIDGRIHNTVLLDITVDGQRRNLEVYIIFLKYNGRWILTEVILR” stands 1.84; under “DEEKEDIERYNRLYFNASTTGDEDTLKRLADPHVRIHVGDKDQVGMEHLSTRLLELRIEVEFDHRHIEVQGDKVTVDGTLTLHIEIGEKRYERRVDLILHWHKIDGRWLIEQVDML”, 1.27; under “DEEKEDNKHFLKIHREDLHTGNEDSLKRLADPNARIHIGDKDYHGWEFWLTLSRELGVDHMHLIIDHVDLQGEKARIEGELEFTVGDKKHRIKTRLILEKIDGVWVYKSVTIE”, 1.04.
Consider “DEEKEEADEHIRLLIDVMKTGDEDSMRRLIDPNVRIRVDGKEDHGMEKLVHLLRHARYREVRIEHVEHQGEKVIIHYKAWVEIDGQENHKKWHFIVTKVDGKWTLKEVSVH”, for which the protease stability score is 2.3.
Under “DEEKEEAEHFFHFFFHLLITGDEEQWFRLADPNMRVRVNGVLLHGREIWERLVQEIRVNHMHLDRMEIHVFNGRMDVYIIGHVRRIIGDKEETTTVHIRIVMFKVNGRWVIHAVEEDYR” stands 1.81; under “DEEKEEARRVLEIFIRSTRTGNFKENTEQMDPNVRIDINGVELHGREDAIRLAVEARIHRVEIEHVTTIGDKVEVHGHVDGTFNGQRTRTRLYVVIEKVDGRWLISEYRYH”, 1.29.
Sequence “DEEKEEEDLVLEILIHMMRTGDEELLDELLDPNARQIVGDKEFIGRELSHWFATFFKNVKVEIKHFRVINGRIHMHVHIQIGDKRHDMRITARKVNGKWVLEESHIR” displayed a protease stability score of 1.62.
Under “DEEKEEFKIASKLFIDSLRTGNEELLSFLFDPHAKSDVNGKNIHGMEILAETMSRLFERYKGMQIRVDEIRFFDGQIHLHGRVNFNGREHTVIVIINKVNGQWRIQDLQID” stands 1.11.
Under “DEEKEEHEKMIERWLRALETGDEHLLRELIDPNVRLDINGRRTHGREDVLRLFVDLGIDHHDIHDVKIIDGRIDMDTRINVNGREIKIRVIARKFDGRWIVESFRVE” stands 1.89; under “DEEKEEIELAIRLTEKMLKTGDEELWRENADPNARFVTENHDDHGREVIVKWVHEMRRKFKNMRLEIEDVRTFNGRLEIHLRLNVNGRDLKINIIVEKVNGRWFLREIEIQ”, 1.74; under “DEEKEEIRQFEETFVEAMKTGDEDVIRHLLDPHVRVDINGQTFHGREIVIEMVSRFPNVQVHIDDLDVQGNWAHSDVQLHQGDKYIRLHIDVTKIDGKWRITFLKFK”, 1.45.
Under “DEEKEELEKATEEWVHFMRTGDEDSLIKNLDPNVKNIFNGKEEIGREDLSHFIKHMGAKVVRIEDIKTQGDKVIIDTRIEVGDKHFEVTLYFEKINGRWFLHSVEIR” stands 0.512; under “DEEKEETEKLAKDILHNIHTGNEEEFLKLADPNTRIVQGDFRTHGRESMHFWMREVRKLFKNVRIHWRLKDVRSFEGHAITHIEVEVSFDGRTDLIRMEIHVIVVNGKIEELIINTR”, 0.695.
With “DEEKEEWEELFKEFEHSIHTGDFRVLAKQMDPHVRIIYGEKRVHGREDAHKLMRDTLEKLGVDHMHVEDNHLQGDFIHLQIRRHVNGRTMTVHFLIWKYNGRWYMHSIKIE”, the protease stability score turned out to be 1.43.
“DEEKEEYNRKAKEFWQRWLTGDEKRLRELADPNVRLDIDGVELVGREEFVHAVHEFLRHIRFKDMKVHRTDNIDGKNESDFEVTGDVNGQDMKSRTHVLILLVNGKIKEVEHRWK”: the protease stability score was determined as 0.222.
Under “DEEKEEYRRAIEDWIKFFITGDFDLLKTLADPNARSEIGNYEFHGMEHISRRIVDIIERFKNMRYSVHSIDFQGDYVILHSYIIYGDKHLHLIVITYKFNGRWRFHSVRVE” stands 1.26.
“DEEKEFAEEMTRIWIEFWKTGDEDDLSHMLDPNVRLIIIIGDKHIHMHGRERAIKEIRRLLHEWRIDDEHNEHIRYFNGKVDVRSRIHVTINGREHDHELVVRIFVVDGRVKSVSIEYR”: the protease stability score came to 2.52.
On to “DEEKEFAEIYLRRLEELYNTGDEEIEHDLLDPHVRINIGNKHIHGREQYIEHWRKLLIILGIERFTIHVRIKDVRIQGEFAHLDGRLELRVGDKRRTLDVELIILKVNGRWVNKHIHFL”, for which the protease stability score came to 0.888.
The sequence “DEEKEHAHRFYEEWVKAWRTGDFKHMLDLIDPNTKIVINGQEYHGMEMWSHIVEHLERLHGYRINHERIHHIRNIDGKVDSDVHVRGRYNGRDIDSRMHIHLDVVDGRIKSLEFRSK” yielded a protease stability score of 1.55.
Under “DEEKEHAKEMLELHLRLWLTGNEDKLHRLADPHVRMTIDGKEFIGREEMIKAIREHLKRLGVDHVRIHWTRLHVVDGQIDLHTHIRLHVDGRTIEIESEIISVVFNGVMKSIEWKFK” stands 1.38; under “DEEKEIHEELVRIWNHAVNTGNEELMERLMDPNVRLLYNGVDLIGMEHAREFNKRFDHLKIRRNEIKSFRVQGNKIDSDTHVDVELNINGKTLRVQQDQHWVVLKVDGRWYIHKIEIL”, 0.799.
On to “DEEKEISELLFRLIFHMLETGDEELSRRLLDPNTRTIWNGRHLHGREASELMRRILHHFVKGATTEIKDLKVQGDWMHFHVTIHIGDKRIRTEIIVHTIDGRIDSMEFRVT”, for which the protease stability score amounted to 1.39.
Under “DEEKEISKKATEILISILRTGDEDVMREYLDPHVRIDFNGKQLHGMDYLWRLLKHMRLRSLDVHSFHFVDGVIEVDSRSDGEVNGQRTDYHFHFIIEKVNGKWWLHKVKFE” stands 1.64; under “DEEKEIVENTTRLYWHLMETGNFDRWMKEADPNTRQDVDGKELHGMELVAHRIRELLEKFKGVRFHVEDIKIINGRSHMDIRIIIGDKHIEAHLILLVVDGRLKHVSLIIR”, 1.99; under “DEEKEKAKEFLHEWFRSLETGDEDLLTKLLDPNARMDINGQRFVGRHDIQRFISELREKIPNMQIDFHDQEMTDVNGVVQVDMRVDIHYGDKSSHHRLHVYVLKINGRWINKHIHVRTK”, 1.16.
Regarding “DEEKELADYISHLLVENLKTGDWHSLRRLIDPNARLEYGDKEHHGWKEIYESKRHLDEELGVKHVNINIHRINYQGEKVEIDGEVRIHFNGRTENRKVNIELRIFNGRIKEVIVDIR”, the protease stability score was 1.17.
With “DEEKELNENLAKIILHMFHTGDEKRWSKMADPHMRANINGVTIHGRELVIKEFLHWRHRLGVKHEEIHHIDIQGDKVRTDSHVDIDGQRVNIILRVVVVNGRLHSEEVEIR”, the protease stability score was determined as 0.787.
Under “DEEKELNRHLAELWLHWWFTGDEEVITEMADPEVRFEVDGRTFHGRETLSRMISEKKRDLGADHERLRDVKVIGDKVHIESVIHVNGRELEVHIIIVVYNGRLKELRVEVK” stands 1.04.
